Reference: the supplement of paper PMC7125110
This sample holds only a part of the variants without activity.

B1: glmS ribozyme (parent)
chain: AUAAAAGCGCCAGAACUACAGAAAUGUAGUUGACGAGGAGGAGGUUUAUCGAAUUUUCGGCGGAUGCCUCCAAA

What was measured:
Conditions in all cases: with glucosamine-6-phosphate
glucosamine-6-phosphate [1] = variants of: B1; test: self-cleavage kobs at 160 uM GlcN6P; higher = faster cleavage; RNA array
How it was run: (§1)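 Ribozyme variants carrying barcodes were transcribed in situ on sequenced MiSeq chips by E. coli RNA polymerase and tracked at 37 °C with a hybridised Cy3 probe. They were exposed to 40 μM to 10 mM glucosamine-6-phosphate in HEPES/KCl/Mg(OAc)2 buffer. kobs came from exponential decay fits of normalised per-tile medians, and kcat and KM from weighted Michaelis–Menten fits.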

glucosamine-6-phosphate [2] = variants of: B1; test: self-cleavage kobs at 2500 uM GlcN6P; higher = faster cleavage; RNA array
How it was run: as §1

glucosamine-6-phosphate [3] = variants of: B1; test: self-cleavage kobs at 10000 uM GlcN6P; higher = faster cleavage; RNA array
How it was run: as §1

glucosamine-6-phosphate [4] = variants of: B1; test: self-cleavage kobs at 640 uM GlcN6P; higher = faster cleavage; RNA array
How it was run: as §1

Variant	self-cleavage kobs at 160 uM GlcN6P (glucosamine-6-phosphate [1])	self-cleavage kobs at 2500 uM GlcN6P (glucosamine-6-phosphate [2])	self-cleavage kobs at 10000 uM GlcN6P (glucosamine-6-phosphate [3])	self-cleavage kobs at 640 uM GlcN6P (glucosamine-6-phosphate [4])
AUAAAAGCGUCAGAACUACGGAAAUGUAGUUGACGAGGAGGAGGUUUAUCGAAUCUUCGGCGGAUGCCUCCAAA [C10U A20G U55C]	< 1e-05 s⁻¹	–	–	–
AUAAAAGCUCCAGAACUACAGAAAUGUAGUGGACGAGGAGGAGGUUUGUCGAAUUUUCGGCGGAUGCCUCCAAA [G9U U31G A48G]	< 1e-05 s⁻¹	–	–	–
AUAAAAGCGCCAGAACUACAGAAAUGUACUUGAGGAGGAGGAGGUUUAUCGAAUCUUCGGCGGAUGCCUCCAAA [G29C C34G U55C]	< 1e-05 s⁻¹	–	–	–
AUAAAAGCGCGAGAGCUACAGAAAUGUAGUUGACGAGGAGGAGGUUUAUCGAAUUUUCGGCGGACGCCUCCAAA [C11G A15G U65C]	< 1e-05 s⁻¹	–	–	–
AUAAAUGCGCCAGUACUACAGAAAUGUAGUUGACGAGUAGGAGGUUUAUAUACUUUUCGGCGAAUGCCUCCAAA [A6U A14U G38U C50A G51U A53C G63A]	< 1e-05 s⁻¹	–	–	–
AUAAAAGCGCCAGAAGUACAGAAAUGUAGUUGACGAGGAGGAGGUUUAUCGCAUUUUCGGCGGAUGCCUCCAAA [C16G A52C]	< 1e-05 s⁻¹	< 1e-05 s⁻¹	–	–
AUAAAAGCGCCGGAACUACAGAAAUGUAGUUGACGAGGAUGAGGUUUAUCGAAUUUUCGGCAGAUGCCUCCAAA [A12G G40U G62A]	< 1e-05 s⁻¹	–	–	–
AUAAAAGCGCCAGAACUACAGAAAUGUAGUUGACGAGGAGGAGGUUUAUGAAAUUUUCGGCGGAUGCCUCCAAA [C50G G51A]	< 1e-05 s⁻¹	–	< 1e-05 s⁻¹	–
AUAAAAGCGACAGAACUACAGAAAUGUAGUUGACGAGGAGGUGGUUUAUCGAAUUUUCGGCGGAUGCCUCCAAA [C10A A42U]	< 1e-05 s⁻¹	< 1e-05 s⁻¹	–	< 1e-05 s⁻¹
AUAAAAGCGCCAGAACUACAGAAAUGUAGUUGACGUGGAGGUGGUUUAUCGAAUUUUCGGCGGAUGCCUCCAAA [A36U A42U]	< 1e-05 s⁻¹	< 1e-05 s⁻¹	< 1e-05 s⁻¹	< 1e-05 s⁻¹
AUAAAAGUGCCAGAACUACAGAAAUGUAUUUGAUGAGGAGGAGGUGUAUCGAGUUUUCGGCGGAUGCCUCCAAA [C8U G29U C34U U46G A53G]	< 1e-05 s⁻¹	< 1e-05 s⁻¹	–	< 1e-05 s⁻¹
AUAAAAGCGCCAGAACUACAGAAAUGUAGGGGACGAGGAGGAGGUUUAUAGUAUUUUCGGCUGAUGCCUCCAAA [U30G U31G C50A A52U G62U]	< 1e-05 s⁻¹	–	–	–
AUAAAAGGGCCAGAACUACAGAAAUGUAGUUGACGAGGAGGAGGUUUAUCGAAUUUUCGGCGGAUGCCUCGAAA [C8G C71G]	< 1e-05 s⁻¹	< 1e-05 s⁻¹	< 1e-05 s⁻¹	< 1e-05 s⁻¹
AUAAAAUCACCAGAACUACAGAAAUGUAGUUGACGAGGAGGAGGUUUAUCGAAUUUUCGGCGGAUGCCUCCAAA [G7U G9A]	< 1e-05 s⁻¹	< 1e-05 s⁻¹	–	< 1e-05 s⁻¹
AUAAAAGCGCCAGAACUACAGAAAUGUAGUUGACGAGCAGGAGGUUUAUCGAAUUUUCGGCUGAUGCCUCCAAA [G38C G62U]	< 1e-05 s⁻¹	< 1e-05 s⁻¹	< 1e-05 s⁻¹	–
AUAAAAGCGCCAGAACUACAGAAAUGUAGUUGACGUGGAGGAGGUUUAUCCAAUUUUCGGCGGAUGCCUCCAAA [A36U G51C]	< 1e-05 s⁻¹	–	< 1e-05 s⁻¹	< 1e-05 s⁻¹
AUAAAAGCGCCAGAACUACAGAAAUGUAGUUGACGAGGAGGAGGUUUCUAGGAUUUUCGGCGGAUGCCUCCAAA [A48C C50A A52G]	< 1e-05 s⁻¹	< 1e-05 s⁻¹	–	–
AUAAAAGCGCCAGAACUACAGAAAUGUAGCUGACAAGGCCGAGGUUUAUCGAAUUUUCGGCGGAUGCAUCCAAA [U30C G35A A39C G40C C68A]	< 1e-05 s⁻¹	–	–	< 1e-05 s⁻¹
